Source: the supplement of paper PMC10567573

B1: PLAGL1 (parent)
chain: CKDFLCQFCAQRFGRKDHLTRHTK
B2: TIA1 (parent)
chain: TYECRCIGEEKEMWNFGEKYARF

Variants of: B1
Assay: protein stability index of a GFP-peptide fusion (GPS, HEK-293T) (PSI 1-6); higher = more stable
Conditions: c terminus: a fixed tail appended
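Further: lentivirally expressed fusions sorted by FACS into six bins by GFP to DsRed ratio, PSI derived from sequencing read proportions per bin multiplied by bin number.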

Protein stability index: each site, then its substitutions
K16: Y 1.86
D17: A 2.28, C 2.06, E 2.14, F 2.08, G 1.67, H 1.85, I 2.52, K 1.94, L 2.03, M 1.3, N 2.04, P 2.4, Q 1.92, R 2.37, S 2.12, T 2.44, V 1.64, W 1.35, Y 1.7
H18: A 2.51, C 2.6, D 1.68, E 1.96, F 1.49, G 1.95, I 2.07, K 2.25, L 1.33, M 1.64, N 1.97, P 1.75, Q 1.96, R 2.35, S 1.82, T 2.25, V 2.59, W 1.94, Y 2.45
L19: A 2.54, C 2.25, D 3.71, E 1.99, F 2.58, G 2.73, H 2.16, I 2.32, K 3.13, M 2.4, N 1.91, P 2.02, Q 2.48, R 2.39, S 2.13, T 3.32, V 1.99, W 1.65, Y 1.9
T20: A 2.25, C 3.02, D 1.72, E 2.29, F 1.83, G 2.17, H 1.96, I 1.58, K 2.35, L 2.22, M 2.66, N 2.01, P 1.82, Q 1.75, R 1.93, S 2.17, V 2.28, W 1.47, Y 1.82
R21: A 1.94, C 2.01, D 2.37, E 2.48, G 2.02, H 1.87, I 1.82, K 2.27, L 2.1, M 1.97, N 2.53, P 2.1, Q 2.56, S 1.3, T 1.77, V 1.59, W 2.16, Y 1.85
H22: A 2.03, C 2.4, D 2.09, E 1.8, F 1.65, G 2.56, I 1.76, K 1.68, L 1.85, M 2.12, N 1.48, P 2.3, Q 1.77, R 2.15, S 2.04, T 2.57, V 2.81, W 2.52, Y 2.7
T23: A 2, C 2.17, D 2.81, E 1.68, F 2.23, G 2.15, H 2.02, I 2.4, K 2.44, L 1.62, M 2.04, N 1.81, P 1.76, Q 3.45, R 1.95, S 2.38, V 1.87, W 1.51, Y 1.77
K24: A 2.73, C 2.83, D 1.73, E 2.3, F 2.4, G 1.74, H 2.41, I 2.08, L 1.49, M 1.74, N 1.9, P 2.21, Q 2.25, R 2.08, S 2.02, T 2.24, V 1.67, W 2.03, Y 1.56

Variants of: B2
Assay: as above
Conditions: c terminus: native

Protein stability index, by site and new letter:
T1: A 2.54, C 1.23, D 3.71, E 4.38, G 2.27, H 2.31, I 2.19, K 1.83, L 1.7, M 3.02, N 3.21, P 3.63, Q 2.35, R 1.68, S 2.51
